Drawing on PMC11203801, this text covers share of observed particles as HSP60 (7) (single ring structure, no HSP10), with 10 mM Mizoribine and stoichiometry N for one molecule.

Details in all cases: remark: other sources report otherwise
The target in assay [1] is human HSP60 (60-kDa Heat Shock Protein) (human), P10809. The assay can be described thus: negative-stain transmission electron microscopy; HSP60 and HSP10 (0.1 mM) incubated for 10 min with 10 mM Mizoribine, treated with 2% uranyl acetate; particles classified and counted.
Assay [2] shares this target. The assay can be described thus: native gel or EMSA; purified HSP60 and HSP10 each run on Native-PAGE (5-12% gradient gel by the legend; Blue NativePAGE 3-12% Bis-Tris by the methods), in the absence of ATP, Coomassie stain.
For assay [3] the target is unchanged. Kind of assay: native gel or EMSA; HSP60 and HSP10 mixed at the same molar ratio, PBS or Mizoribine below 10 mM (1, 5 mM); Native/PAGE gradient gel, Coomassie stain.
Assay [4] has the same target. Kind of assay: negative-stain transmission electron microscopy; HSP60 and HSP10 (0.1 mM) incubated for 10 min in the absence of Mizoribine, treated with 2% uranyl acetate; particles classified and counted.

B1: human HSP60 (60-kDa Heat Shock Protein), P10809 27-573 (natural protein)
chain: AKDVKFGADARALMLQGVDLLADAVAVTMGPKGRTVIIEQSWGSPKVTKDGVTVAKSIDLKDKYKNIGAKLVQDVANNTNEEAGDGTTTATVLARSIAKEGFEKISKGANPVEIRRGVMLAVDAVIAELKKQSKPVTTPEEIAQVATISANGDKEIGNIISDAMKKVGRKGVITVKDGKTLNDELEIIEGMKFDRGYISPYFINTSKGQKCEFQDAYVLLSEKKISSIQSIVPALEIANAHRKPLVIIAEDVDGEALSTLVLNRLKVGLQVVAVKAPGFGDNRKNQLKDMAIATGGAVFGEEGLTLNLEDVQPHDLGKVGEVIVTKDDAMLLKGKGDKAQIEKRIQEIIEQLDVTTSEYEKEKLNERLAKLSDGVAVLKVGGTSDVEVNEKKDRVTDALNATRAAVEEGIVLGGGCALLRCIPALDSLTPANEDQKIGIEIIKRTLKIPAMTIAKNAGVEGSLIVEKIMQSSSEVGYDAMAGDFVNMVEKGIIDPTKVVRTALLDAAGVASLLTTAEVVVTEIPKEEKDPGMGAMGGMGGGMGGGMF
Take B1: the share of observed particles as HSP60 (7) (single ring structure, no HSP10), with 10 mM Mizoribine in assay [1] came out at 4%. For the same molecule, the stoichiometry N in assay [2], in assay [3] and in assay [4] was 7 throughout.
